Experimental data: article PMC2963697

What was measured:
[1] = substrate: C=CC=C(O)C(=O)O; assay: UV spectrophotometric tautomerase assay, steady state; assay type: biochemical, Helicobacter pylori; conditions: reaction 3 -> 6, 20 mM sodium phosphate, pH 7.3, 23 °C
[2] = substrate: C=CC=C(O)C(=O)O; assay: as above; assay type: biochemical, Archaeoglobus fulgidus; conditions: reaction 3 -> 6, 20 mM sodium phosphate, pH 7.3, 23 °C

Protein	Km [1] [µM]	kcat [1] [s⁻¹]	kcat/Km [1] [M⁻¹ s⁻¹]	Km [2] [µM]	kcat [2] [s⁻¹]	kcat/Km [2] [M⁻¹ s⁻¹]
HpDmpI (Helicobacter pylori 26695) (protein) PFINIKLVPENGGPTNEQKQQLIEGVSDLMVKVLNKNKASIVVIIDEVDSNNYGLGGESVHHLRQKN	190 ± 40	2.5 ± 0.3	13000			
AfDmpI (Archaeoglobus fulgidus DSM 4304) (protein) PVLIVYGPKLDVGKKREFVERLTSVAAEIYGMDRSAITILIHEPPAENVGVGGKLIADRERE				90 ± 30	0.1 ± 0.02	1100
